Legend:
hemoglobin [1] = conditions: PK-PD model estimates from different populations and structural models; cited from earlier work
Text: The estimates of red blood cell life span (67.5 days) obtained from this analysis are consistent with previously reported values in the literature (60 to 65 days in dialysis patients), [17].

[2] = cited from earlier work
[3] = dialysis patients, cited from earlier work
[4] = Population pharmacokinetic model of peginesatide plasma concentrations (NONMEM); format: in vivo, human; conditions: for Subcutaneous bioavailability (F1): fraction
Text: (§1) These studies were: AFX01-02 (NCT00109291) [data on file], AFX01-03 (NCT00228449), AFX01-04 (NCT00228436) and AFX01-07 (NCT00434330) [data on file]). Data were also utilized from one Phase 3 study, AFX01-14 (NCT00597584) conducted in hemodialysis patients. All plasma concentration-time data obtained in Phase 2 (with frequent PK and PD sampling scheme) [7, 8, AFX01-2, AFX01-07] and Phase 3 studies, with sparse PK and frequent PD sampling schemes, were used for the development of the PK model.
The lower and upper limits of quantification for the assay were 25 and 600 ng/mL, respectively.
(§2) The concentration of hemoglobin was measured using a standard laboratory method in a Clinical Laboratory Improvement Amendments certified central laboratory. Baseline weight was used to calculate the dose (in mg/kg). The first order conditional estimation (FOCE) and first-order (FO) method as implemented in NONMEM were used for PK and PK-PD modeling. Model selection criteria included a statistically significant reduction of the objective function value (OFV) (α = 0.05) for nested models, Akaike information criteria for non-nested models, reductions in both residual (σ^2) and inter-subject (ω^2) variability, improvement in the precision of parameter estimates as measured by the percent standard error of the mean (%SEM), and visual examination of standard goodness-of-fit plots.
Several different PK models were evaluated as base structural PK models. These included: 1-compartment and 2-compartment with first-order absorption and elimination; 1-compartment and 2-compartment with first-order absorption and Michaelis-Menton (MM) elimination; and a combination of zero- and first-order absorption with linear and MM elimination. Life-span, negative-feedback and precursor-dependent Lifespan Indirect Response (LIDR) models were evaluated as potential base PK-PD models.
In order to avoid possible multicollinearity issues, GAM analyses were performed for PK and PD parameters using different combinations of covariates that were deemed to be highly correlated (r>0.6) along with the remaining covariates. The potential covariates selected following GAM analysis were then tested using a standard approach of stepwise forward addition (P<0.05) followed by stepwise backward elimination procedure (P<0.005). […] The relationship between continuous covariates and PK and PD parameters were evaluated using linear, exponential and power functions as described in Equations 9, 10, and 11 with the covariates centered or scaled at their median values: [drawing 11] [drawing 12] [drawing 13]
The adequacy of the final PK and PK-PD models was evaluated using a simulation-based prediction-corrected (pc) visual predictive check (VPC) method (1000 replicates). Due to the dose adjustment algorithm used in these trials, the pcVPC was utilized. This technique provides an enhanced ability to diagnose possible model misspecification by removing the variability introduced in an ordinary VPC when binning across a potentially large variability in dose or other influential covariates. The percent of observations outside the 90% prediction interval were also calculated to evaluate predictive ability of the model. A non-parametric bootstrap procedure (1000 bootstrap runs) was also employed to evaluate the precision of the parameter estimates and the robustness of the final PK and PK-PD models.
Inter-individual variability (IIV) was estimated for volume of the central compartment (V2), the absorption rate constant (Ka) and the concentration required to reach 50% of maximum rate of elimination (KM) using exponential models, assuming a log-normal distribution for each parameter.

hemoglobin [5] = experiment: Population PK-PD model (modified precursor-dependent lifespan indirect response) of hemoglobin levels; format: in vivo, human; conditions: final PK-PD model
Text: as §1
as §2, with “plots. […]” for “plots.”
In the study, baseline erythropoietin levels were not measured in all patients. […]
A generalized additive modeling (GAM) approach along with graphical analysis (plots of the inter-subject error terms for each parameter [ηi] versus covariates) was used for initial covariate screening and to determine the functional form of the relationship between the covariates and PK and PD parameters of peginesatide. […] The relationship between continuous covariates and PK and PD parameters were evaluated using linear, exponential and power functions as described in Equations 9, 10, and 11 with the covariates centered or scaled at their median values: [drawing 11] […]
The adequacy of the final PK and PK-PD models was evaluated using a simulation-based prediction-corrected (pc) visual predictive check (VPC) method (1000 replicates). […]

[6] = final population PK model, 672 CKD patients on/not on dialysis, IV or SC, final estimate (% SEM)
[7] = final population PK model, SC, final estimate (% SEM)
[8] = final population PK model, median bootstrap estimate, 870/1000 converged runs
[9] = median bootstrap estimate, 935/1000 converged runs

## methoxy polyethylene glycol-epoetin beta [Micera]
Hemoglobin [1]
  EC50: 0.898 ng/mL
  Emax: 0.425

## darbepoetin alfa
Hemoglobin [1]
  EC50: 0.41 ng/mL
  Emax: 0.637

## peginesatide
[2]; healthy volunteers
  volume of distribution: 0.035 L/kg
[2]; human, in vivo, sc
  half-life (T1/2): 53.0 ± 17.7 h
[3]; IV administration, mean ± standard deviation
  mean volume of distribution: 0.0349 ± 0.0138 L/kg
[3]; IV or SC administration every 4 weeks
  accumulation: No accumulation
[3]; SC administration
  bioavailability: approximately 46%
  time at which Cmax is reached: approximately 48 hours
[4]; concomitant medications taken by >10% of the patient population during 80% of the trial period
  effect of concomitant medications on PK or PD parameters: did not alter
[4]; estimated population value, IV and SC administration
  total volume of distribution: 0.043 L/kg
[4]; [6]
  Central volume of distribution (V2): 35.6 (2.7) mL/kg
  Concentration needed to reach 50% of Vmax (KM): 1880 (14.6) ng/mL
  Maximum rate of elimination (Vmax): 45.3 (10.0) ng/mL/hr
[4]; [7]
  Absorption rate constant (Ka): 0.00865 (15.6) 1/hr
  Subcutaneous bioavailability (F1): 0.498 (4.4)
[4]; final population PK model, final estimate (% SEM)
  Peripheral volume of distribution (V3): 7.44 (10.3) mL/kg
[4]; [8]
  Subcutaneous bioavailability (F1): 0.499
  Absorption rate constant (Ka): 0.00869 h⁻¹
  Age slope for V2: –0.125 L/yr
  BMI power for V2: –0.485
  Central volume of distribution (V2): 35.6 mL/kg
  Concentration needed to reach 50% of Vmax (KM): 1860 ng/mL
  ETHN shift for Ka: 0.00815 (1/hr)
  Maximum rate of elimination (Vmax): 44.7 ng/mL/h
  Peripheral volume of distribution (V3): 7.42 mL/kg
  TBILI slope for V2: 0.482 L/(g/L)
[4]; model estimated, final population PK model
  bioavailability after SC administration: approximately 50%
[4]; population PK model, over the evaluated dose range
  linearity of pharmacokinetics: non-linear pharmacokinetics
Hemoglobin [5]; 517 hemodialysis patients, IV or SC, plasma concentration, final estimate (% SEM)
  Drug concentration required for 50% of maximum response (EC50): 401 (2.0) ng/mL
Hemoglobin [5]; [9]
  Drug concentration required for 50% of maximum response (EC50): 417 ng/mL
  Maximum pharmacologic effect (Emax): 0.564

From article PMC3686692 (PLoS ONE, 2013)
